T1: biotinylated recombinant human IL-12Rβ2 (produced in-house) (human, UniProt Q99665 24-622, randomly biotinylated)
T1 construct: also called hIL-12RB2; human IL-12RB2
T1 sequence: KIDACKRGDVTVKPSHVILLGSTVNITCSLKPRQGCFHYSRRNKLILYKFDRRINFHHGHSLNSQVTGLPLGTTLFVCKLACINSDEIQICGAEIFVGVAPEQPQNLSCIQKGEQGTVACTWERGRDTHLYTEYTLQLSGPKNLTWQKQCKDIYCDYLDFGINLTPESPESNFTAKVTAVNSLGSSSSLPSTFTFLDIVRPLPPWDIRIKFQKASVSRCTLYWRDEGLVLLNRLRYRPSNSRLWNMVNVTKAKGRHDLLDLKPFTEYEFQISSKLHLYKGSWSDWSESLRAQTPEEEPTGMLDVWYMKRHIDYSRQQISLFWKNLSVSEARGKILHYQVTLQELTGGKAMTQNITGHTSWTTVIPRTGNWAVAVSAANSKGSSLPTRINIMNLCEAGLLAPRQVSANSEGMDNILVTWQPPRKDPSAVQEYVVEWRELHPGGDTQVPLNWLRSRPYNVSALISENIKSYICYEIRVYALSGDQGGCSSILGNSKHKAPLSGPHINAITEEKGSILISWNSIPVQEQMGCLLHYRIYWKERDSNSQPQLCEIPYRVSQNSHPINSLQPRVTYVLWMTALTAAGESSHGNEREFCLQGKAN

T2: biotinylated recombinant mouse IL-12Rβ2 (produced in-house) (mouse, UniProt P97378 24-637, randomly biotinylated)
T2 construct: also called mIL-12RB2; mouse IL-12RB2
T2 sequence: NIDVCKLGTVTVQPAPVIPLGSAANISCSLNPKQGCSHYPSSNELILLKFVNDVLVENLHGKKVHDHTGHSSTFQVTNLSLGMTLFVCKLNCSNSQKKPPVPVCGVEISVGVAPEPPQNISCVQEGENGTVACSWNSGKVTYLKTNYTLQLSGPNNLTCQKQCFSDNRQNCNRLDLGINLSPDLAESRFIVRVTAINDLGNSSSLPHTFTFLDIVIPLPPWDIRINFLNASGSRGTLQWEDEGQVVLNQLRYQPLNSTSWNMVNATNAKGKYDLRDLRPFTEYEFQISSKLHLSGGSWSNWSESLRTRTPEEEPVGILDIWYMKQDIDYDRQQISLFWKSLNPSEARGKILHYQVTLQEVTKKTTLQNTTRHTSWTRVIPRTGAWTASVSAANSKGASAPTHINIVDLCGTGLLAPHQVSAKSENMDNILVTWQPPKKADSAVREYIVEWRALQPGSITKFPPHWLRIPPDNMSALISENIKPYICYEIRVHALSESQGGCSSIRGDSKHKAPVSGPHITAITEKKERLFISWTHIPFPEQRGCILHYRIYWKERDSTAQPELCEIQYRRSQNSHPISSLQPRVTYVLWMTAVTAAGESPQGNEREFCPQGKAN

T3: biotinylated recombinant human IL-12Rβ2 (human, UniProt Q99665 24-622, random biotinylated)
T3 construct: Recombinant protein produced in-house, biotinylated; also called hIL-12RB2; human IL-12RB2
T3 sequence: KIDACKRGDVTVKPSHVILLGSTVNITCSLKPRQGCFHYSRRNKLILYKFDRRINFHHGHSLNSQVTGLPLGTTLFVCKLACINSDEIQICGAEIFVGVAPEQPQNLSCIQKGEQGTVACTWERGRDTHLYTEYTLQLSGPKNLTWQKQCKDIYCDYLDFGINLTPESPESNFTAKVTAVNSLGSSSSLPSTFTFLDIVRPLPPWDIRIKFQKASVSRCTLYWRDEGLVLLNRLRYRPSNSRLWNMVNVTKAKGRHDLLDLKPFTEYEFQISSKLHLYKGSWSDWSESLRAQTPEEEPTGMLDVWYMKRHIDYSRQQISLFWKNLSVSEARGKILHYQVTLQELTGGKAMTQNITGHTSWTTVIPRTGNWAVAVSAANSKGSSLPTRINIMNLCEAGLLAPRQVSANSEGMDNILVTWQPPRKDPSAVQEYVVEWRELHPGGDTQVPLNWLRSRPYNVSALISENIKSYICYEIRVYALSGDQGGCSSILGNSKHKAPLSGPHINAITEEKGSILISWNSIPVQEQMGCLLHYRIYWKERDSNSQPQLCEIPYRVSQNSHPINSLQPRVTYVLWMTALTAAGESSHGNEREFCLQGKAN

T4: biotinylated recombinant mouse IL-12Rβ2 (mouse, UniProt P97378 24-637, random biotinylated)
T4 construct: Recombinant protein produced in-house, biotinylated; also called mIL-12RB2; mouse IL-12RB2
T4 sequence: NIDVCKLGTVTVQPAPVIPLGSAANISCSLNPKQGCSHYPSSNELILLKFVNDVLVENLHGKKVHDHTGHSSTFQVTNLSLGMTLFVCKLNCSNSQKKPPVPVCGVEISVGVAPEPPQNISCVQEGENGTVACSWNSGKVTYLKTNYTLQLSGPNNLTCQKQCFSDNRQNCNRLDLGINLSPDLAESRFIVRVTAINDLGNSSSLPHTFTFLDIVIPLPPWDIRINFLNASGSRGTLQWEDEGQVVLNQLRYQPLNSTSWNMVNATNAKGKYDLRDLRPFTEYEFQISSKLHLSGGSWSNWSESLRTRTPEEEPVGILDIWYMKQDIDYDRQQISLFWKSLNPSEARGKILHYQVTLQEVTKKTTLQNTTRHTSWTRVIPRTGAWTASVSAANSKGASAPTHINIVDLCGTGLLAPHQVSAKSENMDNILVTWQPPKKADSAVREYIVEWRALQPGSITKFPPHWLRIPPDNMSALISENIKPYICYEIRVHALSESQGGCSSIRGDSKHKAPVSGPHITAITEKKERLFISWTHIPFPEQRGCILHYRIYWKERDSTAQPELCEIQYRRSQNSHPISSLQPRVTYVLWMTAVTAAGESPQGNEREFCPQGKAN


Tests used:
[1] = biological target: T1, biotinylated recombinant human IL-12Rβ2 …; assay: ELISA, periplasmic extract on biotinylated human IL-12Rβ2; control streptavidin-coated blocked wells
[2] = biological target: T2, biotinylated recombinant mouse IL-12Rβ2 …; assay: ELISA, periplasmic extract on biotinylated mouse IL-12Rβ2; control streptavidin-coated blocked wells
[3] = biological target: T3, biotinylated recombinant human IL-12Rβ2; assay: BLI (Octet), periplasmic extract on biotinylated hIL-12Rβ2 on streptavidin tips
[4] = biological target: T3, biotinylated recombinant human IL-12Rβ2; assay: ELISA, periplasmic extract on biotinylated hIL-12Rβ2, signal over control wells
[5] = biological target: T4, biotinylated recombinant mouse IL-12Rβ2; assay: ELISA, periplasmic extract on biotinylated mIL-12Rβ2, signal over control wells
[6] = biological target: T3, biotinylated recombinant human IL-12Rβ2; assay: BLI (Octet), periplasmic extract on biotinylated hIL-12Rβ2 on streptavidin tips, 1:1 model

Binder	ELISA binding hIL-12RB2/control [1]	ELISA binding mIL-12RB2/control [2]	Response [3]	ELISA binding hIL-12RB2/control [4] [ratio]	ELISA binding mIL-12RB2/control [5] [ratio]	koff [6] [s⁻¹]
anti-IL-12Rβ2 VHH clone 2CAM45 (VHH, Tested as periplasmic extract; CDR3 group 47; also called 20485) VHH: QVQLQESGGGLVQAGGSLRLSCAASGFTFDDYAIGWFRQAPGKEREGISCISSSDYGTYYAGSVKGRFTISSDNAKNTVYLQMNSLKPEDTAVYYCAAEAISEYDCLGINYGMDYWGKGTQVTVSS	0.974 ratio to control	10.4 ratio to control	–	–	–	–
anti-IL-12Rβ2 VHH clone 2CAM47 (VHH, Tested as periplasmic extract; CDR3 group 27; also called 20487) VHH: QVQLQESGGGVVQEGASLRLSCAASGRNLSTYAMGWIRQAPGKEREFVAAISWAGSTTYYADSVKGRFIISRDNAKNTLNLQMNSLKPEDTAVYYCAAPPYVTTTYYATPPSDIRDYHYWGQGTQVTVSS	0.969 ratio to control	4.91 ratio to control	–	–	–	–
anti-IL-12Rβ2 VHH clone 3CAM11 (VHH, Tested as periplasmic extract; CDR3 group 27; also called 20508) VHH: QVQLQESGGGLVQAGGSLRLSCAASGRNLSTYAMGWIRQAPGKEREFVAAISWAGSTTYYADSVKGRFIISRDNAKNTLNLQMNSLKPEDTAVYYCAAPPYVTTTYYATPPSDIRDYHYWGQGTQVTVSS	1.31 ratio to control	6.6 ratio to control	–	–	–	–
anti-IL-12Rβ2 VHH clone 20389 (VHH, not shown: small tags and cut ends, tested as periplasmic extract; also called 3CRH73) VHH: QVQLQESGGGLVRAGGSLRLSCAASGHTFSNYVMGWFRQAPGKEREFVAAISWGGSNTYYADSVKGRFTISRDNAKNTVYLQMNSLKVEDTAVYYCAADRRFEGWNYYSMDYWGKGTQVTVSS	–	–	0.565	6.45	1.18	0.0052
anti-IL-12Rβ2 VHH clone 2CRMS29 (VHH, Tested as periplasmic extract; CDR3 group 52; also called 20521) VHH: QVQLQESGGGLVQAGGPLRLSCAASGRTFSGSAMGWFRQAPGKEREFVAAITWVGGFTYYADSVKGRFTISRDNAKNTVYLQMNNLSPEDTAVYSCAAQAYHKSGYYYPPLYDYWGQGTQVTVSS	1.05 ratio to control	5.85 ratio to control	–	–	–	–
anti-IL-12Rβ2 VHH clone 2CAM39 (VHH, Tested as periplasmic extract; CDR3 group 46; also called 20482) VHH: QVQLQESGGGLVQAGGSLRLSCAASGRTFSTYAMGWFRQAPGKEREFVAAISWSGGSTYYADSVKGRFTISRDNAKNTGYLQMNSLKPEDTAVYVCAADAEDPILYGSSWNNRRKEYDYWGQGTQVTVSS	1 ratio to control	8.02 ratio to control	–	–	–	–
anti-IL-12Rβ2 VHH clone 3CRM95 (VHH, Tested as periplasmic extract; CDR3 group 44; also called 20465) VHH: QVQLQESGGGLVQAGDFLRLSCVFSGGTFGDYSMGWFRQAPGKEREFVAAIRWSGDSTQYAEAVKGRFTISRDNAKSTVYLQMSSLKPEDTAVYYCAADPSYYIGPNHTPSRYRDWGQGTQVTVSS	1.41 ratio to control	6.72 ratio to control	–	–	–	–
anti-IL-12Rβ2 VHH clone 2CAM56 (VHH, Tested as periplasmic extract; CDR3 group 28; also called 20490) VHH: QVQLQESGGGEVQAGGSLRLSCVASGRTFSVYTTGWFRQAPGKERELVAGMSGTRTYYADSVKGRFTISRDNAKNTVYLQMNSLKPDDTAVYYCAERRYGGPSLVWDEYDYRGQGTQVTVSS	0.918 ratio to control	5.21 ratio to control	–	–	–	–
anti-IL-12Rβ2 VHH clone 2CAM67 (VHH, Tested as periplasmic extract; CDR3 group 28; also called 20494) VHH: QVQLQESGGGEVQAGGSLRLSCVASGRTFSVYTTGWFRQAPGKEREFVAGMSGTRTYYADSVKGRFTISRDNAKNTVYLQMNSLKPDDTAVYYCAERRYGGPSLVWDEYDYRGQGTQVTVSS	0.87 ratio to control	7.74 ratio to control	–	–	–	–

Reference: patent US20260209362A1 (VIB VZW, published 2026)
